# ± gives the standard error. This sample holds only a part of the variants without activity.
# B1: glmS ribozyme (parent)
# chain: AUAAAAGCGCCAGAACUACAGAAAUGUAGUUGACGAGGAGGAGGUUUAUCGAAUUUUCGGCGGAUGCCUCCAAA
# Variants of: B1
# Experiment: self-cleavage kobs at 2500 uM GlcN6P; higher = faster cleavage; RNA array
# Conditions: with glucosamine-6-phosphate
# Summary of the method: (§1)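 Tiles of sequenced MiSeq chips were imaged over ~14 h at 37 °C. On them, barcoded ribozyme variants had been transcribed in situ by E. coli RNA polymerase and were tracked via a hybridised Cy3 probe while glucosamine-6-phosphate (40 μM to 10 mM) in HEPES/KCl/Mg(OAc)2 buffer flowed in. Per-tile medians, normalised to baseline and to non-cleaving reference variants, were fit to one- or two-exponential decays for kobs, and weighted Michaelis–Menten fits gave kcat and KM.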
row,Variant,self-cleavage kobs at 2500 uM GlcN6P
1,AUAAAAGCGCCAGAACUACAGAAAUGUAGUUGACCAAGAGGAGGUUUAACGGUUUGUCGGGGGAUGCCUCCAAA,< 1e-05 s⁻¹
2,AUAAAAGCGCCAGAACUACAGAAAUGUAGUUGACGCGGAGGAGUUUUAUCGAAUUUUCGGCGGAUGUCUCCAAA,< 1e-05 s⁻¹
3,AUAAAAGCGCCAGAACUACAGAAAUGUAGUUGACUGGGAGGAGGUUUAUCGAAUUUUCGGCGCAUGCCUCCAAA,< 1e-05 s⁻¹
4,AUAAAAGCGCCAGAACUACAGAAAUGUAGUUGACGCGGAGGAGGUUUAUUGAAUUUUCAGCGGAUGCCUCCAAA,< 1e-05 s⁻¹
5,AUAAAAGCGCCAGAACUACAGAAAUGUAGUUGACGAGCAGGAGGUUUAUCGAAUUUUUGGCGGAUACCUCCAAA,< 1e-05 s⁻¹
6,AUAAAAGCGCCAGAACUACAGAAAUGUAGUUGACGUGGAGGAGGUUUAUCGAAUUUUCCGCGUAUGCCUCCAAA,< 1e-05 s⁻¹
7,AUAAAAGCGCCAGAACUACAGAAAUGUAGUUGACUAGGAGGAGGUUUAUCGAAUUUUCGACGGAUGCCUGCAAA,< 1e-05 s⁻¹
8,AUAAAAGCGCCAGAACUACAGAAAUGUAGUUGACGAUGAGGAGGUUUAUCGAUUUUACGGCGGAUGCCUCCAAA,< 1e-05 s⁻¹
9,AUAAAAGCGCCAGAACUACAGAAAUGUAGUUGACGAGUAGGAGGCUUAUCGAAUUUACGGCGGAUGCCUCCAAA,< 1e-05 s⁻¹
10,AUAAAAGCGCCAGAACUACAGAAAUGUAGUUGACGAGAAGGAUGUUUGUCGAAUUUUGGGCGGAUGCCUCCAAA,< 1e-05 s⁻¹
11,AUAAAAGCGCCAGAACUACAGAAAUGUAGUUGACGAGCAGGAGGUUUACCGAAUUUACGGCGGAGGCCUGCAAA,< 1e-05 s⁻¹
12,AUAAAAGCGCCAGAACUACAGAAAUGUAGUUGACGCGGAGGAGGUUUAUCGGAUUUUCGGGGGAUGCCUCCAAA,< 1e-05 s⁻¹
13,AUAAAAGCGCCAGAACUACAGAAAUGUAGUUGACGAAGAGGUGGUUUAUCGGAUUUUCGGCGGAUGCCUCAAAA,< 1e-05 s⁻¹
14,AUAAAAGCGCCAGAACUACAGAAAUGUAGUUGACGAGUAGGAGGUUUAUCGAAUUUUCGGCGGAUGGUUCCAAA,0.000248 ± 8.4e-05 s⁻¹
15,AUAAAAGCGCCAGAACUACAGAAAUGUAGUUGACGAGAAAGAGUUUUAUCGAAUUUUCGCCGGAUGCCUCCAAA,< 1e-05 s⁻¹
16,AUAAAAGCGCCAGAACUACAGAAAUGUAGUUGACGAAGAGGAGAUUUAUCGAAUUCUCGGCGGAUGCCUCAAAA,< 1e-05 s⁻¹
17,AUAAAAGCGCCAGAACUACAGAAAUGUAGUUGACGGGGAGGAGUUUUGUCGAAUUUUCGGCGGAUGUCUCAAAA,< 1e-05 s⁻¹
18,AUAAAAGCGCCAGAACUACAGAAAUGUAGUUGACGCAGAGGAGGUUUAUCCAAUUUUCGGUGGAUGCCUCCAAA,< 1e-05 s⁻¹

row,Variant,self-cleavage kobs at 2500 uM GlcN6P
1,AUAAAAGCGCCAGAACUACAGAAAUGUAGUUGACGAGCCGGAGGAUUAUCGAAUUUUCGGCGGAUGCCUCCAAA,< 1e-05 s⁻¹
2,AUAAAAGCGCCAGAACUACAGAAAUGUAGUUGACGAGAAGGAGGUUUAUGGAAUUUUCUGAGGAUGGCUCCAAA,8.22e-05 ± 2.2e-05 s⁻¹
3,AUAAAAGCGCCAGAACUACAGAAAUGUAGUUGACGAGAUGGACGUUUUUCGAAUCUUCGGCGGAUGCCUACAAA,< 1e-05 s⁻¹
4,AUAAAAGCGCCAGAACUACAGAAAUGUAGUUGACCAGGAGGUGGUUUCUCGAAUUUUCGGCGUAUGCCUCCAAA,< 1e-05 s⁻¹
5,AUAAAAGCGCCAGAACUACAGAAAUGUAGUUGACGAGCAGGAGGUUUAUCGAAUUUGCAGCGGGUGCCUCCAAA,< 1e-05 s⁻¹
6,AUAAAAGCGCCAGAACUACAGAAAUGUAGUUGACGUGGAGGAGGUUUAUCGAAGUUACGGCGGAUGCCUCCAAA,< 1e-05 s⁻¹
7,AUAAAAGCGCCAGAACUACAGAAAUGUAGUUGACCAGGAUGAGGUUUAUCAAAUUUUCGGCGGAGGCCUCCAAA,< 1e-05 s⁻¹
8,AUAAAAGCGCCAGAACUACAGAAAUGUAGUUGACGAUGAAGAGGUUUAUCGAAUUUUCGGCGAAUGCCUCCAAA,< 1e-05 s⁻¹
9,AUAAAAGCGCCAGAACUACAGAAAUGUAGUUGACUAGGAGGUGGUUUAUCGAAUUUUCGGCGGUUGCCUCCAAA,< 1e-05 s⁻¹
10,AUAAAAGCGCCAGAACUACAGAAAUGUAGUUGACGGGGAGGAGGGUUAUCGAAUUUUCGGCGGAUGACUCCAAA,< 1e-05 s⁻¹
11,AUAAAAGCGCCAGAACUACAGAAAUGUAGUUGACGAGAAGGAGGUUUAAAGAAUUUUCGGCGGAUGCCUCCAAA,< 1e-05 s⁻¹
12,AUAAAAGCGCCAGAACUACAGAAAUGUAGUUGACUAGGAGGAGGUUUAUCGAAUUUUCGGCGGGUGCCUCAAAA,< 1e-05 s⁻¹
13,AUAAAAGCGCCAGAACUACAGAAAUGUAGUUGACGUGGAGGAGGUUUAUCUAAUUUUCGGCGUAUGCCUCCAAA,< 1e-05 s⁻¹
14,AUAAAAGCGCCAGAACUACAGAAAUGUAGUUGACGAGCAGGAGGCUUAUACAAUUUUCGGCGGAUGUCUCCAAA,< 1e-05 s⁻¹
15,AUAAAAGCGCCAGAACUACAGAAAUGUAGUUGACGACGAGGAGGUUUAUCGGAUUGUCGGCGGAUGCCUCCAAA,< 1e-05 s⁻¹
16,AUAAAAGCGCCAGAACUACAGAAAUGUAGUUGACGAAGAGGAGGUUUAUCGAAUUUUCGGCGGAGGACUCCAAA,4.8e-05 ± 1.1e-05 s⁻¹
17,AUAAAAGCGCCAGAACUACAGAAAUGUAGUUGACGAGCAGGAGGUUUUUCGAAUUUCCGGCGGAUGUCUCCAAA,< 1e-05 s⁻¹

# Variants of: B1
# Experiment: self-cleavage kobs at 10000 uM GlcN6P; higher = faster cleavage; RNA array
# Conditions: with glucosamine-6-phosphate
# Summary of the method: as §1
row,Variant,self-cleavage kobs at 10000 uM GlcN6P
1,AUAAAAGCGCCAGAACUACAGAAAUGUAGUUGACCAAGAGGAGGUUUAACGGUUUGUCGGGGGAUGCCUCCAAA,< 1e-05 s⁻¹
2,AUAAAAGCGCCAGAACUACAGAAAUGUAGUUGACGAUGAAGAGGUUUAUCGAAUUUUCGGCGAAUGCCUCCAAA,< 1e-05 s⁻¹

# — the supplement of paper PMC7125110
